Measured values taken from paper PMC11586414.
“And” between values parts separate entries of the source, which are not always exact repeats. Equal entries are not always repeated.

Tests used:
[1] = target: HEPN^Lpg WT (HEPN toxin of the Legionella pneumophila HEPN–MNT module) (Legionella pneumophila Philadelphia 1) (UniProt Q5ZRG2); experiment: crystal structure
[2] = target: HEPN^Lpg WT (HEPN toxin of the Legionella pneumophila HEPN–MNT module) (Legionella pneumophila Philadelphia 1) (UniProt Q5ZRG2); experiment: AUC

Substance: HEPN^Lpg WT (HEPN toxin of the Legionella pneumophila HEPN–MNT module) (from UniProt Q5ZRG2 1-139) (natural protein)
- stoichiometry N [1]: 4
- stoichiometry N [2]: 2 and 4

Substance: MNT^Lpg (MNT antitoxin of the Legionella pneumophila HEPN–MNT module) (from UniProt Q5ZRG1 1-108) (enzyme)
- stoichiometry N (MNT^Lpg per HEPN^Lpg chain (1:4)) [1]: 0.25
